Source: doi:10.1101/2023.07.23.550228

Target: GvpT (B. megaterium)
Test: SDS-PAGE and Western blot

Question: How did the stoichiometry N turn out when GvpT (natural protein) was run?
Answer: 2
